Assay results published in publication PMC11522927.

Molecular target: VirC^4A (HMG synthase VirC, Cys114Ala/Gln334Ala/Arg335Ala/Arg338Ala) (Streptomyces virginiae)
Assay: SEC-SAXS

Substance: VirC^4A (HMG synthase VirC, Cys114Ala/Gln334Ala/Arg335Ala/Arg338Ala) (enzyme)
- stoichiometry N: 2
